In publication PMC3688267 (Nature structural & molecular biology, 2011):

T1: human RAP1RCT (RAP1 C-terminal RCT domain, residues 303-399) (human, UniProt Q9NYB0 303-399)
T1 sequence (looked up): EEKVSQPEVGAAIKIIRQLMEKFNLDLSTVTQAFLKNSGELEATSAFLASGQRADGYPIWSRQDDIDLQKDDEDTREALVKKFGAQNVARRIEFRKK

T2: S. pombe SpRap1RCT (SpRap1 residues 639-693) (S. pombe, UniProt Q96TL7 639-693)
T2 sequence (looked up): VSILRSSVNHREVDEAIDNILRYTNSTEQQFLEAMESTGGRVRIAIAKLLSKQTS

T3: SpRap1RCT V651R (S. pombe, UniProt Q96TL7 639-693, V651R)
T3 sequence (looked up): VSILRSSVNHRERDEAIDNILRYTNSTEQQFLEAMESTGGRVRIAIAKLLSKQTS

T4: S. cerevisiae ScRap1RCT (ScRap1 residues 679-827) (S. cerevisiae, UniProt P11938 679-827)
T4 sequence (looked up): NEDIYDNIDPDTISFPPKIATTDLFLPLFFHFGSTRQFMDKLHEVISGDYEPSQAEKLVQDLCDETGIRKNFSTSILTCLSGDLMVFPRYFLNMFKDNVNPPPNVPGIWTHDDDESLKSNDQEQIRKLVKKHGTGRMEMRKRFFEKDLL


Legend:
Assay in all cases: ITC
[1] = biological target: T1, human RAP1RCT (RAP1 C-terminal RCT …)
[2] = biological target: T2, S. pombe SpRap1RCT (SpRap1 residues …)
SpRap1RCT V651R = biological target: T3, SpRap1RCT V651R
[3] = biological target: T4, S. cerevisiae ScRap1RCT (ScRap1 …)

Kd [1] [nM] | binding result [2] | Binder | also measured
23.9 |  | full-length TRF2 protein (natural protein) MAGGGGSSDGSGRAAGRRASRSSGRARRGRHEPGLGGPAERGAGEARLEEAVNRWVLKFYFHEALRAFRGSRYGDFRQIRDIMQALLVRPLGKEHTVSRLLRVMQCLSRIEEGENLDCSFDMEAELTPLESAINVLEMIKTEFTLTEAVVESSRKLVKEAAVIICIKNKEFEKASKILKKHMSKDPTTQKLRNDLLNIIREKNLAHPVIQNFSYETFQQKMLRFLESHLDDAEPYLLTMAKKALKSESAASSTGKEDKQPAPGPVEKPPREPARQLRNPPTTIGMMTLKAAFKTLSGAQDSEAAFAKLDQKDLVLPTQALPASPALKNKRPRKDENESSAPADGEGGSELQPKNKRMTISRLVLEEDSQSTEPSAGLNSSQEAASAPPSKPTVLNQPLPGEKNPKVPKGKWNSSNGVEEKETWVEEDELFQVQAAPDEDSTTNITKKQKWTVEESEWVKAGVQKYGEGNWAAISKNYPFVNRTAVMIKDRWRTMKRLGMN | 
16.5 |  | QLRNPPTTIGMMTLKAAFKTLSGAQDSEAAFAKLDQKDLVLP (domain or fragment) [human TRF2RBM (RAP1-binding motif, TRF2 residues 275-316)] | 
 |  | LSVKGMLYDSDSQQILNRLRERVSGSTAQSAD (domain or fragment, UniProt P79005 365-396, looked up) [S. pombe Taz1RBM (Taz1 residues 365-396)] | Kd [2]: 2000 nM; binding result (SpRap1RCT V651R): binds
 | binds | LSVKGMLYDSDSQQIRNRLRERVSGSTAQSAD (domain or fragment, S. pombe, UniProt P79005 365-396, looked up) [Taz1RBM L380R] | 
 | binds | LSVKGMLYDSDSQQILNRLRERRSGSTAQSAD (domain or fragment, S. pombe, UniProt P79005 365-396, looked up) [Taz1RBM V387R] | 
 |  | EKGNAKMIDFATLSKLKKKYQIILDR (peptide, UniProt P06701 456-481, looked up) [S. cerevisiae Sir3RBM (Sir3 residues 456-481)] | Kd [3]: ~1800 nM
